Molecular target: melanocortin-4 receptor (MC4R) (UniProt P32245)
Assay: competitive binding vs [125I]-NDP-alpha-MSH (receptor not given; MC4R by Example 3)

Sequence of UniProt P32245 (P32245 whole entry): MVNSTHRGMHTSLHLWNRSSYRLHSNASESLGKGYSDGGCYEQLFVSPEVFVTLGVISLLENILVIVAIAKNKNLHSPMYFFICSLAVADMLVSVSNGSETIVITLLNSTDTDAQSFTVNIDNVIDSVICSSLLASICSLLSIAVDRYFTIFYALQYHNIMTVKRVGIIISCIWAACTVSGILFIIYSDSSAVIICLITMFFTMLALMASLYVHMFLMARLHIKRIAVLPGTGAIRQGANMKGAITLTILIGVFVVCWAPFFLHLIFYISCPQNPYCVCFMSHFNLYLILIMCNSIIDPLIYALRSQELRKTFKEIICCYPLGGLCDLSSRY

Substance: melanotan II (MTII) (peptide)
- IC50: 5 to 30 nM

Source: US20070082843A1
